Measurements reported in patent US20220010021A1 (Sanofi, published 2022).
Positions count from the first letter of the chain named.

Legend:
[1] = molecular target: cell surface receptor composed of FGFR1c and co-receptor beta-Klotho (KLB) (human, UniProt P11362 22-822; Q86Z14 1-1044); experiment: cell-based or functional assay; as to Mean E max, Luciferase reporter gene assay: reference of the scale not given here
human beta-Klotho (KLB) = molecular target: T1, human beta-Klotho (KLB) (human, UniProt Q86Z14 53-997); experiment: BLI off-rate screening (Octet), crude supernatant;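 also: supernatants tested at 25 µg/mL, dissociation from biosensors recorded in D-PBS with 0.1% BSA over 1800 s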
T1 construct: Bought protein; also called human KLB; β-Klotho
T1 sequence (looked up): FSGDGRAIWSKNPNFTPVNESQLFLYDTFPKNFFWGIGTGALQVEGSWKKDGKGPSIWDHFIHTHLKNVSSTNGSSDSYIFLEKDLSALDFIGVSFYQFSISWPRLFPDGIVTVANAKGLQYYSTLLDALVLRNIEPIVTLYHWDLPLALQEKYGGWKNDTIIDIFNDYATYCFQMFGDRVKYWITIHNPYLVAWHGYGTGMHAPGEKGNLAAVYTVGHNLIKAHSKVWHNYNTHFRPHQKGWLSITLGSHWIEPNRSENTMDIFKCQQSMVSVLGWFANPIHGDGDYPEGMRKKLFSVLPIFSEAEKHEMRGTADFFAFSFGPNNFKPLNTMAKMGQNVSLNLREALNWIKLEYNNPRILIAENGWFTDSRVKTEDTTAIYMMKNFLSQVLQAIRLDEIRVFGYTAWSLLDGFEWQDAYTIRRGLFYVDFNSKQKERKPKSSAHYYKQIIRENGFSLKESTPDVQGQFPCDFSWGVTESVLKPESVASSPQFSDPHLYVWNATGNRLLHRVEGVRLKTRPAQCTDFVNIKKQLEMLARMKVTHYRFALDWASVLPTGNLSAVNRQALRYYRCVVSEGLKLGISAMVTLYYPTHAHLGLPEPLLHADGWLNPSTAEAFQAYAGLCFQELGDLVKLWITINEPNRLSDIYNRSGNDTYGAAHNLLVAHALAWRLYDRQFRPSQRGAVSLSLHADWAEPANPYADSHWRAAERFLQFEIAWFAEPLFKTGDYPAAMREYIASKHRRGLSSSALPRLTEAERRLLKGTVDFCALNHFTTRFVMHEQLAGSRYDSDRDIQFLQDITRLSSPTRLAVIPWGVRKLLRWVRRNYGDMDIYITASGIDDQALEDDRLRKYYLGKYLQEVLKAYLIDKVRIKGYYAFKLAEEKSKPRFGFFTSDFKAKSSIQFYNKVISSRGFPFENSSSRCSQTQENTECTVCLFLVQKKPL

Sequence of cell surface receptor composed of FGFR1c and co-receptor beta-Klotho (KLB) (P11362 22-822, chain 1 of 2): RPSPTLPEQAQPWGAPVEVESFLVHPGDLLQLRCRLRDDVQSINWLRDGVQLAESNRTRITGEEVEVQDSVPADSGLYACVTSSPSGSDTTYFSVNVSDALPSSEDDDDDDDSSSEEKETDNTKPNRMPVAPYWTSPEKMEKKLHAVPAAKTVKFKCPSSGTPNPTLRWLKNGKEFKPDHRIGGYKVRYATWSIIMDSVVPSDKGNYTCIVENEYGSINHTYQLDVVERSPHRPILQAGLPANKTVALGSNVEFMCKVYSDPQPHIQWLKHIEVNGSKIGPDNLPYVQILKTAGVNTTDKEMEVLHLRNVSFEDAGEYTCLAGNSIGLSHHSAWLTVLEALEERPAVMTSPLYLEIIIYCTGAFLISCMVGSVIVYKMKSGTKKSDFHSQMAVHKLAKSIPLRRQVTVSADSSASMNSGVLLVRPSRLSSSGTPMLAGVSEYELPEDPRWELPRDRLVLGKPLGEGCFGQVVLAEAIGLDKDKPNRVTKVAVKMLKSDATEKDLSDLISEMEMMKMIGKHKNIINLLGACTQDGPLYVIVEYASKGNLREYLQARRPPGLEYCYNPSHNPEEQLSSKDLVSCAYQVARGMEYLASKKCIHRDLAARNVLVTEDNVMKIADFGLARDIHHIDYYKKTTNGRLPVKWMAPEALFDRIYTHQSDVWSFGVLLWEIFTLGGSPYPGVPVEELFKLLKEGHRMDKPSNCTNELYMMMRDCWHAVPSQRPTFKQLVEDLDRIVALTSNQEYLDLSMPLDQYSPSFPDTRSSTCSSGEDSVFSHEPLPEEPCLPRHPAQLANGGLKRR
Sequence of cell surface receptor composed of FGFR1c and co-receptor beta-Klotho (KLB) (Q86Z14 whole entry, chain 2 of 2): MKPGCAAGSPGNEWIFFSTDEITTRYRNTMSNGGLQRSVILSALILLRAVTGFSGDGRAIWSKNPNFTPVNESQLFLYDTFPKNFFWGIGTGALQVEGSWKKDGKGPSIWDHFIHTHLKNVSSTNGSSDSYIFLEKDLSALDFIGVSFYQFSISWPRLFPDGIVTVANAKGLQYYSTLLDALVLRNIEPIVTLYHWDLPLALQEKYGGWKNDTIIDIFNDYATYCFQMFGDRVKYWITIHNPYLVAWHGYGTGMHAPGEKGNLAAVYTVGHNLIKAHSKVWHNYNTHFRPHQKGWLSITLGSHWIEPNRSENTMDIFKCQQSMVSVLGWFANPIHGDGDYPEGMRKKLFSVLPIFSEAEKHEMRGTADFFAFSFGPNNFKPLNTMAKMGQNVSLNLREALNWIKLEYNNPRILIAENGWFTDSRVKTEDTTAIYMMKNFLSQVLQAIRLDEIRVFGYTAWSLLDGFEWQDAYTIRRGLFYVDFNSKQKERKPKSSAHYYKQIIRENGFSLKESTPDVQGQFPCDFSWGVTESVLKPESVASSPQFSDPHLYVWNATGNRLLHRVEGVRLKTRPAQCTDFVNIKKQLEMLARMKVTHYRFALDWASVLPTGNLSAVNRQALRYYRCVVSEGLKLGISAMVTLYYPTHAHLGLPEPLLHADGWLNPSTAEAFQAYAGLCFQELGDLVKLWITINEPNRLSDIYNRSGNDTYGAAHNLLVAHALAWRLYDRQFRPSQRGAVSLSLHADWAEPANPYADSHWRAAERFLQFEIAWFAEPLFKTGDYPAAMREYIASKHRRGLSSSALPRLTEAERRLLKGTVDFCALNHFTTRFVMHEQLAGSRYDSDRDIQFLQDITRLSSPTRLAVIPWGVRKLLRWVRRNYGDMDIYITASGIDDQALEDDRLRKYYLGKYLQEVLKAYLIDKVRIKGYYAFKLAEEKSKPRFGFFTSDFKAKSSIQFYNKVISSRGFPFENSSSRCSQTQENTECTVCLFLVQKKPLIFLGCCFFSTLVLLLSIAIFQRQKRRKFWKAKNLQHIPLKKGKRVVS

B1: 16H7 light chain variant H96S (antibody, IgG4, V domains shown)
VH: not shown
VL: SYVLTQPPSVSVAPGQTARITCGGNNIGSESVHWYQQKPGQAPVLVVYDDSDRPSGIPERFSGSNSGNTATLTISRVEAGDEADYYCQVWDGNSDSVVFGGGTKLTVLG
notes: IgG4 backbone
Mean E max, Luciferase reporter gene assay [1]: 102% | Mean EC50, Luciferase reporter gene assay [1]: 0.097 nM | koff (human beta-Klotho (KLB)): 3e-05 s⁻¹

B2: 16H7 light chain variant S51T (antibody, IgG4, V domains shown)
VH: not shown
VL: B1 VL with S51T, S96H
notes: IgG4 backbone
Mean E max, Luciferase reporter gene assay [1]: 102% | Mean EC50, Luciferase reporter gene assay [1]: 0.121 nM | koff (human beta-Klotho (KLB)): 2.5e-05 s⁻¹

B3: 16H7 light chain variant S94I (antibody, IgG4, V domains shown)
VH: not shown
VL: B1 VL with S94I, S96H
notes: IgG4 backbone
Mean E max, Luciferase reporter gene assay [1]: 106% | Mean EC50, Luciferase reporter gene assay [1]: 0.126 nM | koff (human beta-Klotho (KLB)): 4.3e-05 s⁻¹

B4: 16H7 light chain variant N93A (antibody, IgG4, V domains shown)
VH: not shown
VL: B1 VL with N93A, S96H
notes: IgG4 backbone
Mean E max, Luciferase reporter gene assay [1]: 101% | Mean EC50, Luciferase reporter gene assay [1]: 0.108 nM | koff (human beta-Klotho (KLB)): 7.5e-06 s⁻¹

B5: 16H7 light chain variant S94A (antibody, IgG4, V domains shown)
VH: not shown
VL: B1 VL with S94A, S96H
notes: IgG4 backbone
Mean E max, Luciferase reporter gene assay [1]: 99% | Mean EC50, Luciferase reporter gene assay [1]: 0.107 nM | koff (human beta-Klotho (KLB)): 4.6e-05 s⁻¹

B6: 16H7 light chain variant S94F (antibody, IgG4, V domains shown)
VH: not shown
VL: B1 VL with S94F, S96H
notes: IgG4 backbone
Mean E max, Luciferase reporter gene assay [1]: 100% | Mean EC50, Luciferase reporter gene assay [1]: 0.132 nM | koff (human beta-Klotho (KLB)): 1e-07 s⁻¹

B7: 16H7 light chain variant N93V (antibody, IgG4, V domains shown)
VH: not shown
VL: B1 VL with N93V, S96H
notes: IgG4 backbone
Mean E max, Luciferase reporter gene assay [1]: 108% | Mean EC50, Luciferase reporter gene assay [1]: 0.139 nM | koff (human beta-Klotho (KLB)): 4e-05 s⁻¹

B8: 16H7 light chain variant N93T (antibody, IgG4, V domains shown)
VH: not shown
VL: B1 VL with N93T, S96H
notes: IgG4 backbone
Mean E max, Luciferase reporter gene assay [1]: 103% | Mean EC50, Luciferase reporter gene assay [1]: 0.161 nM | koff (human beta-Klotho (KLB)): 3.1e-05 s⁻¹

B9: 16H7 light chain variant S31N (antibody, IgG4, V domains shown)
VH: not shown
VL: B1 VL with S31N, S96H
notes: IgG4 backbone
Mean E max, Luciferase reporter gene assay [1]: 99% | Mean EC50, Luciferase reporter gene assay [1]: 0.124 nM | koff (human beta-Klotho (KLB)): 7.6e-05 s⁻¹

B10: 16H7 light chain variant H96W (antibody, IgG4, V domains shown)
VH: not shown
VL: B1 VL with S96W
notes: IgG4 backbone
Mean E max, Luciferase reporter gene assay [1]: 103% | Mean EC50, Luciferase reporter gene assay [1]: 0.155 nM | koff (human beta-Klotho (KLB)): 0.00012 s⁻¹

B11: 16H7 light chain variant N93C (antibody, IgG4, V domains shown)
VH: not shown
VL: B1 VL with N93C, S96H
notes: IgG4 backbone
Mean E max, Luciferase reporter gene assay [1]: 107% | Mean EC50, Luciferase reporter gene assay [1]: 0.148 nM | koff (human beta-Klotho (KLB)): 5.8e-05 s⁻¹

B12: 16H7 light chain variant N93Y (antibody, IgG4, V domains shown)
VH: not shown
VL: B1 VL with N93Y, S96H
notes: IgG4 backbone
Mean E max, Luciferase reporter gene assay [1]: 105% | Mean EC50, Luciferase reporter gene assay [1]: 0.108 nM | koff (human beta-Klotho (KLB)): 6.5e-05 s⁻¹

B13: 16H7 light chain variant S94C (antibody, IgG4, V domains shown)
VH: not shown
VL: B1 VL with S94C, S96H
notes: IgG4 backbone
Mean E max, Luciferase reporter gene assay [1]: 99% | Mean EC50, Luciferase reporter gene assay [1]: 0.138 nM | koff (human beta-Klotho (KLB)): 1e-07 s⁻¹

B14: 16H7 light chain variant S94G (antibody, IgG4, V domains shown)
VH: not shown
VL: B1 VL with S94G, S96H
notes: IgG4 backbone
Mean E max, Luciferase reporter gene assay [1]: 100% | Mean EC50, Luciferase reporter gene assay [1]: 0.146 nM | koff (human beta-Klotho (KLB)): 6.8e-05 s⁻¹

B15: 16H7 light chain variant S94E (antibody, IgG4, V domains shown)
VH: not shown
VL: B1 VL with S94E, S96H
notes: IgG4 backbone
Mean E max, Luciferase reporter gene assay [1]: 100% | Mean EC50, Luciferase reporter gene assay [1]: 0.122 nM | koff (human beta-Klotho (KLB)): 1.4e-05 s⁻¹

B16: 16H7 light chain variant N93S (antibody, IgG4, V domains shown)
VH: not shown
VL: B1 VL with N93S, S96H
notes: IgG4 backbone
Mean E max, Luciferase reporter gene assay [1]: 101% | Mean EC50, Luciferase reporter gene assay [1]: 0.105 nM | koff (human beta-Klotho (KLB)): 3.4e-05 s⁻¹

B17: 16H7 light chain variant S51N (antibody, IgG4, V domains shown)
VH: not shown
VL: B1 VL with S51N, S96H
notes: IgG4 backbone
Mean E max, Luciferase reporter gene assay [1]: 100% | Mean EC50, Luciferase reporter gene assay [1]: 0.113 nM | koff (human beta-Klotho (KLB)): 5.3e-05 s⁻¹

B18: 16H7 light chain variant H96V (antibody, IgG4, V domains shown)
VH: not shown
VL: B1 VL with S96V
notes: IgG4 backbone
Mean E max, Luciferase reporter gene assay [1]: 91% | Mean EC50, Luciferase reporter gene assay [1]: 0.13 nM | koff (human beta-Klotho (KLB)): 4.1e-05 s⁻¹

B19: 16H7 light chain variant S31H (antibody, IgG4, V domains shown)
VH: not shown
VL: B1 VL with S31H, S96H
notes: IgG4 backbone
Mean E max, Luciferase reporter gene assay [1]: 110% | Mean EC50, Luciferase reporter gene assay [1]: 0.158 nM | koff (human beta-Klotho (KLB)): 4.5e-05 s⁻¹

B20: 16H7 light chain variant N93D (antibody, IgG4, V domains shown)
VH: not shown
VL: B1 VL with N93D, S96H
notes: IgG4 backbone
Mean E max, Luciferase reporter gene assay [1]: 108% | Mean EC50, Luciferase reporter gene assay [1]: 0.123 nM | koff (human beta-Klotho (KLB)): 3.8e-05 s⁻¹

B21: 16H7 light chain variant S51R (antibody, IgG4, V domains shown)
VH: not shown
VL: B1 VL with S51R, S96H
notes: IgG4 backbone
Mean E max, Luciferase reporter gene assay [1]: 98% | Mean EC50, Luciferase reporter gene assay [1]: 0.103 nM | koff (human beta-Klotho (KLB)): 0.00012 s⁻¹

B22: 16H7 light chain variant N93F (antibody, IgG4, V domains shown)
VH: not shown
VL: B1 VL with N93F, S96H
notes: IgG4 backbone
Mean E max, Luciferase reporter gene assay [1]: 100% | Mean EC50, Luciferase reporter gene assay [1]: 0.165 nM | koff (human beta-Klotho (KLB)): 2.2e-06 s⁻¹

B23: 16H7 light chain variant S94D (antibody, IgG4, V domains shown)
VH: not shown
VL: B1 VL with S94D, S96H
notes: IgG4 backbone
Mean E max, Luciferase reporter gene assay [1]: 103% | Mean EC50, Luciferase reporter gene assay [1]: 0.122 nM | koff (human beta-Klotho (KLB)): 3.4e-05 s⁻¹

B24: 16H7 light chain variant S94L (antibody, IgG4, V domains shown)
VH: not shown
VL: B1 VL with S94L, S96H
notes: IgG4 backbone
Mean E max, Luciferase reporter gene assay [1]: 103% | Mean EC50, Luciferase reporter gene assay [1]: 0.169 nM | koff (human beta-Klotho (KLB)): 4.4e-05 s⁻¹

B25: 16H7 light chain variant N93R (antibody, IgG4, V domains shown)
VH: not shown
VL: B1 VL with N93R, S96H
notes: IgG4 backbone
Mean E max, Luciferase reporter gene assay [1]: 100% | Mean EC50, Luciferase reporter gene assay [1]: 0.186 nM | koff (human beta-Klotho (KLB)): 5e-05 s⁻¹

B26: 16H7 light chain variant S51I (antibody, IgG4, V domains shown)
VH: not shown
VL: B1 VL with S51I, S96H
notes: IgG4 backbone
Mean E max, Luciferase reporter gene assay [1]: 102% | Mean EC50, Luciferase reporter gene assay [1]: 0.097 nM | koff (human beta-Klotho (KLB)): 5e-05 s⁻¹

B27: 16H7 light chain variant H96Y (antibody, IgG4, V domains shown)
VH: not shown
VL: B1 VL with S96Y
notes: IgG4 backbone
Mean E max, Luciferase reporter gene assay [1]: 103% | Mean EC50, Luciferase reporter gene assay [1]: 0.134 nM | koff (human beta-Klotho (KLB)): 6.9e-05 s⁻¹

B28: 16H7 light chain variant H96T (antibody, IgG4, V domains shown)
VH: not shown
VL: B1 VL with S96T
notes: IgG4 backbone
Mean E max, Luciferase reporter gene assay [1]: 110% | Mean EC50, Luciferase reporter gene assay [1]: 0.11 nM | koff (human beta-Klotho (KLB)): 1.8e-05 s⁻¹

B29: 16H7 light chain variant S51L (antibody, IgG4, V domains shown)
VH: not shown
VL: B1 VL with S51L, S96H
notes: IgG4 backbone
Mean E max, Luciferase reporter gene assay [1]: 97% | Mean EC50, Luciferase reporter gene assay [1]: 0.099 nM | koff (human beta-Klotho (KLB)): 9.6e-05 s⁻¹

B30: 16H7 light chain variant S51Q (antibody, IgG4, V domains shown)
VH: not shown
VL: B1 VL with S51Q, S96H
notes: IgG4 backbone
Mean E max, Luciferase reporter gene assay [1]: 107% | Mean EC50, Luciferase reporter gene assay [1]: 0.115 nM | koff (human beta-Klotho (KLB)): 6.5e-05 s⁻¹
